Results published in the supplement of paper PMC6757056.
± gives the standard deviation of the averaged measurements.

B1: library; a variant is named by its letters at N, in order (parent)
chain: GCUGUCACCGGUGUAUUACCCUAGUGGUCGACCGGUCUGAUGAGUCUNNNNNNAGACGAAACAGC

Columns and labels:
hypoxanthine [1] = variants of: B1; assay: normalized RNA/DNA level with ligand (relative to sTRSVctl = 100) (log10 (% of sTRSVctl)); ligand: hypoxanthine (xanthine aptamer); higher = less ribozyme self-cleavage, higher mRNA level; conditions: ligand concentration (+) RNA-Seq: 5 mM, HEK293T, reporter: mCherry (pCS4076), ligand present: yes
How it was run: (§1)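 For each 6-well well, 4 µg of library plasmid encoding mCherry-linked ribozyme switches, or eGFP-linked ones in some ligand experiments, was transfected into HEK293T. Any ligand was added 1 h before transfection, and RNA was extracted with EDTA 72 h after it, then reverse-transcribed, amplified, barcoded and sequenced. RNA level was obtained by dividing RNA reads by DNA reads, normalizing to a spiked-in non-cleaving sequence or to the top sequences, then scaling and log-transforming. The top set was 25 sequences, scaling was ×100 with log10, and ≥100 DNA reads were required.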

hypoxanthine [2] = variants of: B1; assay: normalized RNA/DNA level without ligand (relative to sTRSVctl = 100) (log10 (% of sTRSVctl)); ligand: hypoxanthine (xanthine aptamer); higher = less ribozyme self-cleavage, higher mRNA level; conditions: HEK293T, reporter: mCherry (pCS4076), ligand present: no
How it was run: as §1

Variant | normalized RNA/DNA level with ligand (log10) (hypoxanthine [1]) | normalized RNA/DNA level without ligand (log10) (hypoxanthine [2])
GUGUAC | 1.92 ± 0.045 | 1.69 ± 0.11
CGACCG | 1.905 ± 0.0089 | 1.92 ± 0.023
UGAUAA | 1.91 ± 0.028 | 1.8144 ± 0.0015
CCUUAG | 1.98 ± 0.025 | 1.72 ± 0.037
CCCUUU | 2 ± 0.059 | 1.938 ± 0.0021
GUGGAC | 1.889 ± 0.011 | 1.58 ± 0.068
ACAUUA | 1.926 ± 0.0045 | 1.85 ± 0.036
UGAGUU | 1.92 ± 0.039 | 1.85 ± 0.042
UGUAGU | 1.88 ± 0.029 | 1.5 ± 0.071
AAGCCC | 1.97 ± 0.032 | 1.9 ± 0.041
CGUUAU | 1.916 ± 0.006 | 1.753 ± 0.011
CGGACC | 1.94 ± 0.037 | 1.94 ± 0.049
GGCCCA | 1.95 ± 0.026 | 1.97 ± 0.024
CUUCAU | 1.921 ± 0.0074 | 1.88 ± 0.067
CACUAC | 1.9 ± 0.07 | 1.8 ± 0.034
CACUAU | 1.908 ± 0.018 | 1.845 ± 0.013
UACAGU | 1.8101 ± 0.00016 | 1.52 ± 0.066
CUAGUA | 1.918 ± 0.0099 | 1.8 ± 0.049
CGUGGU | 1.95 ± 0.021 | 1.86 ± 0.026
UCUAGG | 1.96 ± 0.072 | 1.92 ± 0.089
AGGUCC | 1.962 ± 0.017 | 1.856 ± 0.0097
UGUAUU | 1.95 ± 0.056 | 1.8992 ± 0.0009
CACUGU | 2 ± 0.021 | 1.97 ± 0.022
AUUGGC | 1.94 ± 0.03 | 1.836 ± 0.0094

Variant | normalized RNA/DNA level with ligand (log10) (hypoxanthine [1]) | normalized RNA/DNA level without ligand (log10) (hypoxanthine [2])
UUGGUG | 2.008 ± 0.0026 | 1.81 ± 0.054
GCUAAA | 1.95 ± 0.043 | 1.77 ± 0.023
ACUGGC | 1.96 ± 0.036 | 1.844 ± 0.016
UGAUCC | 1.91 ± 0.087 | 1.921 ± 0.012
CGUCCU | 2.02 ± 0.035 | 2.02 ± 0.048
GCCAAC | 1.927 ± 0.014 | 1.74 ± 0.039
CGACAU | 1.887 ± 0.012 | 1.74 ± 0.021
UUGAAU | 1.95 ± 0.03 | 1.8 ± 0.031
UUGAAC | 1.92 ± 0.052 | 1.855 ± 0.01
AGUCGC | 1.945 ± 0.016 | 1.814 ± 0.016
ACACGC | 1.94 ± 0.033 | 1.71 ± 0.03
AGGCUC | 2.02 ± 0.024 | 2.01 ± 0.055
ACGGUU | 1.84 ± 0.024 | 1.36 ± 0.064
CCAUCC | 2 ± 0.087 | 1.975 ± 0.015
CCAUCG | 1.91 ± 0.024 | 1.79 ± 0.019
UCUGCC | 2.04 ± 0.021 | 1.89 ± 0.022
GCGUUC | 1.93 ± 0.059 | 1.58 ± 0.11
CUUCUA | 1.97 ± 0.051 | 1.85 ± 0.077
UUAACU | 1.932 ± 0.017 | 1.841 ± 0.012
GCGCCG | 1.91 ± 0.03 | 1.44 ± 0.017
UCAACC | 1.978 ± 0.0062 | 1.95 ± 0.06
GACAAU | 1.897 ± 0.017 | 1.815 ± 0.013
AACUCC | 2 ± 0.067 | 1.922 ± 0.011
GUGGGC | 1.81 ± 0.1 | 1.33 ± 0.11

Variant | normalized RNA/DNA level with ligand (log10) (hypoxanthine [1]) | normalized RNA/DNA level without ligand (log10) (hypoxanthine [2])
UCCAAU | 1.94 ± 0.021 | 1.79 ± 0.018
GAGCUC | 1.99 ± 0.045 | 1.91 ± 0.034
GGCUCC | 1.989 ± 0.014 | 1.898 ± 0.018
UACUGG | 1.884 ± 0.015 | 1.491 ± 0.0069
CUCUAC | 1.966 ± 0.013 | 1.87 ± 0.019
GACGCC | 1.9 ± 0.04 | 1.79 ± 0.054
AAUUGU | 1.93 ± 0.004 | 1.705 ± 0.013
CCUAGC | 1.91 ± 0.08 | 1.842 ± 0.0069
CCUAGA | 1.962 ± 0.016 | 1.84 ± 0.057
GGGAAC | 1.964 ± 0.016 | 1.724 ± 0.01
GUGAAU | 1.9 ± 0.024 | 1.7 ± 0.052
GUGAAC | 1.9 ± 0.024 | 1.57 ± 0.046
GGUAUA | 1.92 ± 0.074 | 1.83 ± 0.024
UUAGUA | 1.939 ± 0.017 | 1.81 ± 0.039
UAGAUC | 1.964 ± 0.012 | 1.955 ± 0.018
UAUGUU | 1.94 ± 0.06 | 1.85 ± 0.049
UAUGUA | 1.906 ± 0.0084 | 1.837 ± 0.0025
UGCAGC | 1.98 ± 0.074 | 1.83 ± 0.055
CGGUCC | 2 ± 0.059 | 1.88 ± 0.066
AGCUCU | 1.96 ± 0.033 | 1.89 ± 0.04
GUUGCC | 1.9665 ± 0.0019 | 1.9 ± 0.033
GUUGCG | 1.87 ± 0.041 | 1.58 ± 0.072
ACUCAG | 1.89 ± 0.04 | 1.529 ± 0.0011
UCUCGA | 1.93 ± 0.057 | 1.832 ± 0.013

Variant | normalized RNA/DNA level with ligand (log10) (hypoxanthine [1]) | normalized RNA/DNA level without ligand (log10) (hypoxanthine [2])
UGAACG | 1.91 ± 0.034 | 1.823 ± 0.0083
UUUCCU | 2.05 ± 0.069 | 1.9175 ± 0.00088
ACGUCC | 1.957 ± 0.0037 | 1.847 ± 0.015
ACGUCG | 1.88 ± 0.041 | 1.41 ± 0.11
GUCACC | 1.92 ± 0.059 | 1.9 ± 0.079
UCCUGU | 1.93 ± 0.021 | 1.86 ± 0.043
AUCGUC | 2.03 ± 0.048 | 1.977 ± 0.0058
CCGUCC | 1.98 ± 0.067 | 1.91 ± 0.057
AAAGCC | 1.94 ± 0.04 | 1.817 ± 0.0038
CUAACG | 1.923 ± 0.017 | 1.88 ± 0.033
AUCUCU | 1.99 ± 0.075 | 1.937 ± 0.0021
UGUAAC | 1.914 ± 0.013 | 1.81 ± 0.024
GUAUUC | 1.95 ± 0.073 | 1.931 ± 0.013
AGGCGC | 1.962 ± 0.0082 | 1.87 ± 0.031
AGGCGA | 1.92 ± 0.066 | 1.557 ± 0.0027
UCGGAA | 1.84 ± 0.043 | 1.31 ± 0.017
UGUGCU | 1.92 ± 0.0065 | 1.93 ± 0.057
UGUGCA | 1.92 ± 0.031 | 1.86 ± 0.022
CUAUUU | 2 ± 0.021 | 1.93 ± 0.053
CACCCG | 1.94 ± 0.028 | 1.906 ± 0.01
UGAAUU | 1.93 ± 0.021 | 1.897 ± 0.014
CGCUUA | 1.861 ± 0.0029 | 1.7 ± 0.036
AGUAGG | 1.78 ± 0.051 | 1.368 ± 0.013
AACCAA | 1.91 ± 0.037 | 1.78 ± 0.072

Variant | normalized RNA/DNA level with ligand (log10) (hypoxanthine [1]) | normalized RNA/DNA level without ligand (log10) (hypoxanthine [2])
UCUUUG | 1.95 ± 0.033 | 1.73 ± 0.043
UCUUUU | 1.95 ± 0.086 | 1.947 ± 0.0056
UCCUAG | 1.91 ± 0.066 | 1.65 ± 0.038
CCUAUU | 1.95 ± 0.063 | 1.9 ± 0.039
UCUAUU | 1.93 ± 0.057 | 1.86 ± 0.023
GGUUAU | 1.94 ± 0.052 | 1.79 ± 0.03
CGGUGG | 1.862 ± 0.011 | 1.37 ± 0.032
CCGUUU | 1.95 ± 0.028 | 1.86 ± 0.069
AUGGUU | 1.89 ± 0.034 | 1.763 ± 0.012
CAUAAC | 1.9194 ± 0.0019 | 1.83 ± 0.056
CCGGUC | 1.96 ± 0.039 | 1.95 ± 0.029
GACCUU | 1.95 ± 0.033 | 1.885 ± 0.015
GGCCGG | 1.95 ± 0.039 | 1.84 ± 0.026
CUAGGC | 1.94 ± 0.029 | 1.86 ± 0.086
GACUCA | 1.97 ± 0.029 | 1.892 ± 0.0056
GUUGAC | 1.917 ± 0.015 | 1.72 ± 0.057
GGUGUC | 1.916 ± 0.0061 | 1.846 ± 0.018
CCGCCG | 1.956 ± 0.016 | 1.66 ± 0.037
UUGCAG | 1.915 ± 0.017 | 1.79 ± 0.099
UGGGAC | 1.897 ± 0.018 | 1.83 ± 0.044
